{"source": "paper PMC6321638", "about": "“Thermodynamic Characterization of the Ca^2+-Dependent Interaction Between SOUL and ALG-2” (International Journal of Molecular Sciences, 2018)", "binders": {"B1": {"name": "His-SOUL^WT (wild-type SOUL fused to His-tag) (natural protein, mouse, UniProt Q9WU63 1-205, looked up)", "chain": "MAEEPEPDLGVAEGSEDQALEMPSWKAPEDIDPQPGSYEIRHYGPAKWVSTCVESLDWDSAIQTGFTKLNGYIQGKNEKEMKIKLTAPVTSYVEPGSSPFSESTITISLYIPSEQQPDPPRPSESDVFIEDRAEMTVFVRSFDGFSSGQKNQEQLLTLANILREEGKVFNEKVFYTAGYSSPFQLLDRNNEVWLIQKNEPSVENK", "notes": "Cloned into the Nde I and Sal I sites of pET28a(+); this probably gives an N-terminal His-tag with a thrombin site (surmised); Dimer by gel filtration; also called mSOUL; source: E. coli BL21(DE3) with pGroESL, purified (Ni-NTA-agarose, Sephadex G-25)"}, "B2": {"name": "delta3-23ALG-2^WT (domain or fragment, mouse, UniProt P12815 1-191, looked up)", "chain": "MADQSFLWNVFQRVDKDRSGVISDNELQQALSNGTWTPFNPVTVRSIISMFDRENKAGVNFSEFTGVWKYITDWQNVFRTYDRDNSGMIDKNELKQALSGFGYRLSDQFHDILIRKFDRQGRGQIAFDDFIQGCIVLQRLTDIFRRYDTDQDGWIQVSYEQYLSMVFSIV", "notes": "ALG-2 (PDCD6), murine, with deletion of the N-terminal 3-23 amino acids (the hydrophobic 21 residues); the plasmid paragraph calls it 24-191 amino acids, without tag; source: E. coli BL21-CodonPlus(DE3)-(RIPL), purified (Ca2+ precipitation, HiTrap Q, Sephacryl S-200 HR)"}, "B3": {"name": "GST-ALG-2^WT (wild-type ALG-2 fused to GST-tag) (natural protein, mouse, UniProt P12815 1-191, looked up)", "chain": "MAAYSYRPGPGGGPGPAAGAALPDQSFLWNVFQRVDKDRSGVISDNELQQALSNGTWTPFNPVTVRSIISMFDRENKAGVNFSEFTGVWKYITDWQNVFRTYDRDNSGMIDKNELKQALSGFGYRLSDQFHDILIRKFDRQGRGQIAFDDFIQGCIVLQRLTDIFRRYDTDQDGWIQVSYEQYLSMVFSIV", "notes": "ALG-2 (apoptosis-linked gene 2, PDCD6), murine, 1-191 amino acids; Cloned into the BamH I and Sal I sites of pGEX-4T-2; GST is probably N-terminal (surmised); also called apoptosis-linked gene 2 protein; PDCD6; source: E. coli BL21-CodonPlus(DE3)-(RIPL), purified (ammonium sulfate, Glutathione Sepharose, Sephadex G-25)"}, "B4": {"name": "delta3-23ALG-2^∆GF (domain or fragment, mouse, UniProt P12815 1-191, looked up)", "chain": "MADQSFLWNVFQRVDKDRSGVISDNELQQALSNGTWTPFNPVTVRSIISMFDRENKAGVNFSEFTGVWKYITDWQNVFRTYDRDNSGMIDKNELKQALSGYRLSDQFHDILIRKFDRQGRGQIAFDDFIQGCIVLQRLTDIFRRYDTDQDGWIQVSYEQYLSMVFSIV", "notes": "ALG-2 (PDCD6), murine, deletion of the N-terminal 3-23 amino acids and of Gly121 and Phe122 (splice variant); numbers count on full-length ALG-2^WT; N-terminus as for m3; source: E. coli, purified (as delta3-23ALG-2)"}}, "key": {"[1]": {"target": "B3", "test": "pull-down; GST-pulldown: purified His-SOUL (5 µM) and GST-ALG-2 (5 µM) with Glutathione Sepharose 4B in buffer B (100 mM Tris-HCl pH 7.5, 100 mM NaCl, 10% glycerol) with 20 µM CaCl2 (or various amounts of Ca2+), 30 min at 4 °C; SDS-PAGE, Coomassie", "details": "both partners purified"}, "delta3-23ALG-2^WT [2]": {"target": "B2", "test": "SEC; Sephacryl-S-200 HR (150 mL), 1 mL of each protein sample (5 µM), buffer B with 20 µM CaCl2; fractions by SDS-PAGE", "details": "both partners purified"}, "[3]": {"target": "the molecule itself", "test": "SEC; Sephacryl-S-200 HR (150 mL), 1 mL of each protein sample (5 µM), buffer B with 20 µM CaCl2; fractions by SDS-PAGE"}, "delta3-23ALG-2^WT [4]": {"target": "B2", "test": "ITC; His-SOUL (130 or 260 µM) injected into delta3-23ALG-2 (5 or 10 µM); 25 °C, pH 7.5, buffer C (25 mM HEPES, 150 mM NaCl, 10% glycerol) with 15 µM CaCl2 and 0.25% Tween 20; one-set-of-sites model (sequential-binding-sites model also tried)", "details": "both partners purified"}, "delta3-23ALG-2^WT [5]": {"target": "B2", "test": "ITC; His-SOUL (130 or 260 µM) injected into delta3-23ALG-2 (5 or 10 µM); 25 °C, pH 7.5, buffer C (25 mM HEPES, 150 mM NaCl, 10% glycerol) with 15 µM CaCl2 and 0.25% Tween 20; one-set-of-sites model (sequential-binding-sites model also tried)", "details": "both partners purified", "remark": "listed apart in the source"}, "delta3-23ALG-2^∆GF": {"target": "B4", "test": "ITC; His-SOUL (130 or 260 µM) injected into delta3-23ALG-2 (5 or 10 µM); 25 °C, pH 7.5, buffer C (25 mM HEPES, 150 mM NaCl, 10% glycerol) with 15 µM CaCl2 and 0.25% Tween 20; one-set-of-sites model (sequential-binding-sites model also tried)", "details": "both partners purified"}, "[6]": {"target": "B1", "test": "pull-down; GST-pulldown: purified His-SOUL (5 µM) and GST-ALG-2 (5 µM) with Glutathione Sepharose 4B in buffer B (100 mM Tris-HCl pH 7.5, 100 mM NaCl, 10% glycerol) with 20 µM CaCl2 (or various amounts of Ca2+), 30 min at 4 °C; SDS-PAGE, Coomassie", "details": "both partners purified"}, "[7]": {"target": "B1", "test": "ITC; His-SOUL (130 or 260 µM) injected into delta3-23ALG-2 (5 or 10 µM); 25 °C, pH 7.5, buffer C (25 mM HEPES, 150 mM NaCl, 10% glycerol) with 15 µM CaCl2 and 0.25% Tween 20; one-set-of-sites model (sequential-binding-sites model also tried)", "details": "both partners purified"}}}
{"binder": "His-SOUL mutant (36-111/126-205) without two PRRs (domain or fragment, mouse, UniProt Q9WU63 36-205, looked up, source: E. coli BL21(DE3) with pGroESL, purified (Ni-NTA-agarose, Sephadex G-25)) GSYEIRHYGPAKWVSTCVESLDWDSAIQTGFTKLNGYIQGKNEKEMKIKLTAPVTSYVEPGSSPFSESTITISLYIDVFIEDRAEMTVFVRSFDGFSSGQKNQEQLLTLANILREEGKVFNEKVFYTAGYSSPFQLLDRNNEVWLIQKNEPSVENK", "values": [{"measurement": "binding result", "setting": "[1]", "value": "binds"}]}
{"binder": "B1", "values": [{"measurement": "stoichiometry N", "setting": "delta3-23ALG-2^WT [2]", "value": 1}, {"measurement": "stoichiometry N", "setting": "[3]", "value": 2}, {"measurement": "Kd of the first binding (sequential-binding-sites model)", "setting": "delta3-23ALG-2^WT [4]", "value": 37, "unit": "nM"}, {"measurement": "Kd of the second binding (sequential-binding-sites model)", "setting": "delta3-23ALG-2^WT [4]", "value": 40, "unit": "nM"}, {"measurement": "dH", "setting": "delta3-23ALG-2^WT [5]", "value": "-17.9 ± 0.7", "unit": "kcal/mol"}, {"measurement": "stoichiometry N", "setting": "delta3-23ALG-2^WT [5]", "value": "1.16 ± 0.02"}, {"measurement": "dH", "setting": "delta3-23ALG-2^∆GF", "value": "-19.8 ± 2", "unit": "kcal/mol"}, {"measurement": "stoichiometry N", "setting": "delta3-23ALG-2^∆GF", "value": "1 ± 0.07"}]}
{"binder": "GST-ALG-2 L52A (natural protein, mouse, UniProt P12815 1-191, looked up, ALG-2 (PDCD6), murine, 1-191 amino acids with L52A (pocket 3); source: E. coli, purified (as GST-ALG-2)) MAAYSYRPGPGGGPGPAAGAALPDQSFLWNVFQRVDKDRSGVISDNELQQAASNGTWTPFNPVTVRSIISMFDRENKAGVNFSEFTGVWKYITDWQNVFRTYDRDNSGMIDKNELKQALSGFGYRLSDQFHDILIRKFDRQGRGQIAFDDFIQGCIVLQRLTDIFRRYDTDQDGWIQVSYEQYLSMVFSIV", "values": [{"measurement": "binding result", "setting": "[6]", "value": "binds"}]}
{"binder": "GST-ALG-2 W89A (natural protein, mouse, UniProt P12815 1-191, looked up, ALG-2 (PDCD6), murine, 1-191 amino acids with W89A (pocket 3); source: E. coli, purified (as GST-ALG-2)) MAAYSYRPGPGGGPGPAAGAALPDQSFLWNVFQRVDKDRSGVISDNELQQALSNGTWTPFNPVTVRSIISMFDRENKAGVNFSEFTGVAKYITDWQNVFRTYDRDNSGMIDKNELKQALSGFGYRLSDQFHDILIRKFDRQGRGQIAFDDFIQGCIVLQRLTDIFRRYDTDQDGWIQVSYEQYLSMVFSIV", "values": [{"measurement": "binding result", "setting": "[6]", "value": "binds"}]}
{"binder": "GST-ALG-2 F85A (natural protein, mouse, UniProt P12815 1-191, looked up, ALG-2 (PDCD6), murine, 1-191 amino acids with F85A (pocket 3); source: E. coli, purified (as GST-ALG-2)) MAAYSYRPGPGGGPGPAAGAALPDQSFLWNVFQRVDKDRSGVISDNELQQALSNGTWTPFNPVTVRSIISMFDRENKAGVNFSEATGVWKYITDWQNVFRTYDRDNSGMIDKNELKQALSGFGYRLSDQFHDILIRKFDRQGRGQIAFDDFIQGCIVLQRLTDIFRRYDTDQDGWIQVSYEQYLSMVFSIV", "values": [{"measurement": "binding result", "setting": "[6]", "value": "binds"}]}
{"binder": "GST-ALG-2 I92A (natural protein, mouse, UniProt P12815 1-191, looked up, ALG-2 (PDCD6), murine, 1-191 amino acids with I92A (pocket 3); source: E. coli, purified (as GST-ALG-2)) MAAYSYRPGPGGGPGPAAGAALPDQSFLWNVFQRVDKDRSGVISDNELQQALSNGTWTPFNPVTVRSIISMFDRENKAGVNFSEFTGVWKYATDWQNVFRTYDRDNSGMIDKNELKQALSGFGYRLSDQFHDILIRKFDRQGRGQIAFDDFIQGCIVLQRLTDIFRRYDTDQDGWIQVSYEQYLSMVFSIV", "values": [{"measurement": "binding result", "setting": "[6]", "value": "binds"}]}
{"binder": "B2", "values": [{"measurement": "Kd", "setting": "[7]", "value": "32.4 ± 6.6", "unit": "nM"}]}
{"binder": "GST-ALG-2^∆GF (natural protein, mouse, UniProt P12815 1-191, looked up, ALG-2 (PDCD6), murine, natural splice variant with deletion of Gly121 and Phe122; made by PCR-based mutagenesis of the 1-191 construct; also called ALG-2^ΔGF; source: E. coli, purified (as GST-ALG-2)) MAAYSYRPGPGGGPGPAAGAALPDQSFLWNVFQRVDKDRSGVISDNELQQALSNGTWTPFNPVTVRSIISMFDRENKAGVNFSEFTGVWKYITDWQNVFRTYDRDNSGMIDKNELKQALSGYRLSDQFHDILIRKFDRQGRGQIAFDDFIQGCIVLQRLTDIFRRYDTDQDGWIQVSYEQYLSMVFSIV", "values": [{"measurement": "binding result", "setting": "[6]", "value": "binds"}]}
{"binder": "B3", "values": [{"measurement": "binding result", "setting": "[6]", "value": "binds"}]}
{"binder": "B4", "values": [{"measurement": "Kd", "setting": "[7]", "value": "62 ± 13.7", "unit": "nM"}]}
{"binder": "His-SOUL1-143 (domain or fragment, mouse, UniProt Q9WU63 1-143, looked up, source: E. coli BL21(DE3) with pGroESL, purified (Ni-NTA-agarose, Sephadex G-25)) MAEEPEPDLGVAEGSEDQALEMPSWKAPEDIDPQPGSYEIRHYGPAKWVSTCVESLDWDSAIQTGFTKLNGYIQGKNEKEMKIKLTAPVTSYVEPGSSPFSESTITISLYIPSEQQPDPPRPSESDVFIEDRAEMTVFVRSFD", "values": [{"measurement": "Kd", "setting": "delta3-23ALG-2^WT [4]", "value": 1300, "unit": "nM"}, {"measurement": "stoichiometry N", "setting": "delta3-23ALG-2^WT [4]", "value": 1}]}
{"binder": "His-SOUL1-111 (domain or fragment, mouse, UniProt Q9WU63 1-111, looked up, SOUL (HEBP2), murine, residues 1-111; source: E. coli BL21(DE3) with pGroESL, purified (Ni-NTA-agarose, Sephadex G-25)) MAEEPEPDLGVAEGSEDQALEMPSWKAPEDIDPQPGSYEIRHYGPAKWVSTCVESLDWDSAIQTGFTKLNGYIQGKNEKEMKIKLTAPVTSYVEPGSSPFSESTITISLYI", "values": [{"measurement": "binding result", "setting": "[1]", "value": "binds"}]}
